Key:
uPAR = uPAR (Homo sapiens, UniProt Q03405); test: Surface plasmon resonance solution competition of the uPA•uPAR interaction (Biacore3000); conditions: indirect solution competition for uPA binding, purified uPAR, non-linear regression, read-out: IC50 as competitive inhibitor of the uPA•uPAR interaction
Procedure: The IC50-value for ICG-Glu-GLU-AE105 as competitive inhibitor of the uPA•uPAR interaction was measured by surface plasmon resonance in a Biacore3000 assay platform as previously published. Subsequent fitting to the binding isotherms by non-linear regression provided the IC50-value.

[1] = Plasma stability of ICG-Glu-Glu-AE105 by HPLC; type: in vitro ADME; conditions: mouse plasma 150 μl, 5 μg in DMSO, 37°C, acetonitrile precipitation, HPLC absorbance area at 780 nm
Procedure: ICG-AE105 (5 μg in DMSO) was added to 150 μl mouse plasma and the solution was incubated at 37°C for either 0, 1, 5 or 30 minutes. After incubation, acetonitrile (200 μl) was added followed by centrifugation at 3500 rpm for 4 minutes. The supernatant was collected, diluted and passed through a 0.45 μm filter. The filtered solution was analyzed on a Dionex UltiMate 300 HPLC using an Onyx Monolithic column (Phenomenex, 50x4.6 mm) and with a flow of 1.5 ml/min. The HPLC mobile phase was 0.1% TFA in H2O:MeCN 90:10 (A) and 0.1% TFA in H2O:MeCN 10:90 (B) and the gradient program: 0–2 min 10% B, 2–20 min 10–100% B, 20–21 100% B, 21–23 min 100–10%B, 23–30 min 10% B.
Each plasma sample was analyzed by HPLC and the absorbance area at 780 nm was calculated. This value was compared to the standard sample and the plasma sample at 0 min to calculated the percentage of intact ICG-AE105 recovered in the supernatant (see Table 1).

[2] = test system: U87MG human glioblastoma xenograft tumors; test: Optical imaging of U87MG xenograft mice 15 h post injection (tumour to background ratio); type: in vivo, mouse; conditions: IVIS Lumina XR, 15 h post i.v. injection of 10 nmol; for Uptake in the tumor (in words): U87MG xenograft mice, n = 5
Procedure: All animal experiments were performed under a protocol approved by the Animal Research Committee of the Danish Ministry of Justice (2012-15-2934-00064). 5 ×10^6 U87MG cells were suspended in 200 ul PBS and inoculated in both flanks of 6 weeks old nude NMRI female mice (24–28 g; Taconic Europe, Lille Skensved, Denmark). All mice were housed in groups with 12 h light/dark cycle and food and water was available ad libitum. When the tumours reached approx. 500 mm^3 in size the mice were enrolled in the optical imaging protocol.
(§1) 10 nmol of ICG-Glu-Glu-AE105 or ICG were administered to 5 mice each via tail vein injections. 15 h post injection the mice were anaesthetized with 2% isoflurane a full-body optical scan recorded using the acquisition mode outlined above.
After imaging with IVIS Lumina XR the anesthetized mice were moved to a surgical table and real-time tumor imaging with a Fluobeam®800 NIR-camera was performed (Fluoptics, Grenoble, France). The camera was connected to a standard laptop to allow imaging, adjustments of camera functions and recording of images and video sequences. Fluobeam®800 works with a 800 nm excitation laser optimised for ICG imaging.
The TBR values were calculated as tumor-signal divided by background-signal by drawing a ROI over each tumor and place the background ROI in an area with constant background signal. Images from IVIS Lumina XR were processed in the software Living Image, while the images from Fluobeam®800 was processed in ImageJ.

nude NMRI mice = test: Observation of adverse effects in imaged mice; type: in vivo, mouse; conditions: 10 nmol i.v., nude NMRI mice with U87MG xenografts, n = 5 per group
Procedure: as §1

[3] = biological target: T1, human uPAR in U87MG tumor tissue sections (Homo sapiens, UniProt Q03405); test: Ex vivo fluorescent imaging and uPAR immunohistochemistry of tumor sections; conditions: 4 μm paraffin tumor sections, Odyssey scanner 800 nm, antibody R2 against uPAR
T1 construct: Ex Vivo histology and fluorescence images of s.c. U87MG tumor tissue sections; from tissue; host or cells: s.c. U87MG human glioblastoma xenograft tumors grown in mice
T1 sequence (Q03405 23-335): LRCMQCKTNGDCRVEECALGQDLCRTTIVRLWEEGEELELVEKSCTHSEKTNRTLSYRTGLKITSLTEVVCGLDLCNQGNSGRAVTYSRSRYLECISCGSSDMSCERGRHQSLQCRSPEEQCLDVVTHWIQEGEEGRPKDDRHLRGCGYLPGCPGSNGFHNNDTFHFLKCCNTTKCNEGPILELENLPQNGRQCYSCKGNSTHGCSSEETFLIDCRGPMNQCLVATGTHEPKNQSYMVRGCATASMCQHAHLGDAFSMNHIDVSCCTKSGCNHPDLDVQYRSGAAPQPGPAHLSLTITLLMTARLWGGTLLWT
Procedure: Tissue was formalin fixed in 4% formaldehyde in 24 h and then embedded in paraffin. For all stainings a 4 μm slice tissue were used. Before any staining the sliced tissue were imaged with an Odyssey scanner (LI-COR Biosciences, Lincoln, Nebraska) at 800 nm.
The tissue was incubated for one hour at 60° before being deparaffinized. Thereafter, tissue was pre-treated with proteinase K (Dako, Glostrup, Denmark) for 6 min. The staining was performed with the Dako ARK kit, with the antibody R2 [24] against uPAR.

[4] = In vitro comparison of fluorescence intensity of ICG and conjugated probe; type: physicochemical
Procedure: The UV-vis absorption spectra were recorded on a Perkin-Elmer Lambda 1050 UV/vis/NIR spectrometer double beam spectrometer using the HBC solvent as baseline. The spectra were recorded in 1 cm path length cuvettes with ICG and ICG-AE105 present in the 10–50 μM range. Excitation and emission spectra and lifetimes were measured using FluoroTime 300 (PicoQuant, Berlin, Germany) system. The spectra were measured through excitation at 725 nm using a Xe-lamp excitation source. The excitation and emission measurements were measured in 1 cm cuvettes at 90° with respect to the excitation light. In the fluorescence measurements the absorbance of the samples were below 0.1 at the maximum of the lowest energy absorption band to avoid inner filter effects. After each fluorescence measurement the absorption spectra were recorded in order to verify that no photobleaching of the sample had occurred during the fluorescence measurement. All excitation and fluorescence spectra were corrected for the wavelength-dependent sensitivity of the detection from 500–900 nm.

[5] = biological target: Urokinase-type plasminogen activator receptor (uPAR) (human) (UniProt Q03405)
Chain of Urokinase-type plasminogen activator receptor (uPAR) (human) (Q03405 23-305): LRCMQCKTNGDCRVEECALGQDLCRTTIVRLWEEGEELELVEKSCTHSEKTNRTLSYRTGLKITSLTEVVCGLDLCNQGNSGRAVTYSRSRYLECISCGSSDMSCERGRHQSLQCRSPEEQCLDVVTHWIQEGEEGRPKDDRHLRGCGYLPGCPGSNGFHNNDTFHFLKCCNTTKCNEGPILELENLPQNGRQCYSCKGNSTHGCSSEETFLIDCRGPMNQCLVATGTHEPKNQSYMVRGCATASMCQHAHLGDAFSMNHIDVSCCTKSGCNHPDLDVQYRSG

Compound | IC50 (uPAR) | Intact ICG-AE105 recovered from supernatant (%) Compared to standard ([1]; 0 min incubation) | Intact ICG-AE105 recovered from supernatant (%) Compared to standard ([1]; 1 min incubation) | Intact ICG-AE105 recovered from supernatant (%) Compared to standard ([1]; 1 min incubation, listed as ICG-AE105) | remaining at 1 min, 33 µg/mL ([1]; 1 min incubation, read-out: Intact ICG-AE105 recovered from supernatant (%) Compared to plasma sample at 0 min) | Intact ICG-AE105 recovered from supernatant (%) Compared to plasma sample at 0 min ([1]; 5 min incubation) | Intact ICG-AE105 recovered from supernatant (%) Compared to standard ([1]; 5 min incubation) | Intact ICG-AE105 recovered from supernatant (%) Compared to standard ([1]; 5 min incubation, listed as ICG-AE105) | Intact ICG-AE105 recovered from supernatant (%) Compared to plasma sample at 0 min ([1]; 30 min incubation) | Intact ICG-AE105 recovered from supernatant (%) Compared to standard ([1]; 30 min incubation) | Intact ICG-AE105 recovered from supernatant (%) Compared to standard ([1]; 30 min incubation, listed as ICG-AE105) | Uptake in the tumor (in words) [2] | Adverse effects observed in mice (nude NMRI mice) | Co-localization of probe fluorescence with uPAR immunohistochemistry staining [3] | Decrease in fluorescence intensity of conjugated probe compared with ICG [4] | mean decrease of the max fluorescence signal of the xenograft tumours when 6.7 nmol uPA is injected together with 10 nmol probe, against probe alone [5] | Tumour to background ratio (TBR) ([2]; U87MG s.c. xenograft mice, n = 5 mice (n = 10 tumors), mean)
CC(C)C[C@H](NC(=O)[C@H](Cc1ccc(O)cc1)NC(=O)[C@@H](CCCNC(=N)N)NC(=O)[C@@H](CO)NC(=O)[C@H](Cc1ccccc1)NC(=O)[C@H](CC1CCCCC1)NC(=O)[C@H](CC(=O)O)NC(=O)[C@H](CCC(=O)O)NC(=O)[C@H](CCC(=O)O)NC(=O)CCCCC[N+]1=C(C=CC=CC=CC=C2N(CCCCS(=O)(=O)[O-])c3ccc4ccccc4c3C2(C)C)C(C)(C)c2c1ccc1ccccc21)C(=O)N[C@@H](Cc1c[nH]c2ccccc12)C(=O)N[C@@H](CO)C(=O)O [ICG-Glu-Glu-AE105] | 134 nM | 97,2% | 92.3% | 92,3% | 95% | 89,3% | 86.7% | 86,7% | 84,1% | 81.7% | 81,7% | high uptake | No adverse effects | co-localization of the uPAR staining and the fluorescent probe signal was observed | 2 fold | – | –
ICG-Glu-Glu-AE105 (peptide) | – | – | – | – | – | – | – | – | – | – | – | – | – | – | – | 46.8% | –
CC1(C)C(/C=C/C=C/C=C/C=C2\N(CCCCS(=O)(=O)O)c3ccc4ccccc4c3C2(C)C)=[N+](CCCCS(=O)(=O)[O-])c2ccc3ccccc3c21 [ICG, indocyanine green] | – | – | – | – | – | – | – | – | – | – | – | No uptake | No adverse effects | – | – | – | 1.04±0.04

Source: article PMC4734687, “Peptide-Based Optical uPAR Imaging for Surgery: In Vivo Testing of ICG-Glu-Glu-AE105” (PLoS ONE, 2016)
